According to patent US20220340635A1, “FUSION PROTEIN FOR TREATMENT OF METABOLIC DISEASE” (ZHEJIANG DOER BIOLOGICS CORPORATION, priority 2019, published 2022):

Target: β-klotho (KLB)
Assay: cell-based or functional assay

- FGF21 activity (EC50, nM): 0.12 nM
Substance: Natural FGF21 (from UniProt Q9NSA1 29-209) (ligand)
